Results on 4 molecules are retold here after article PMC9884874 (Journal for Immunotherapy of Cancer, 2023).

The test system of one assay is tumor. Particulars: single agent or in combination with anti-PD-1 ab, mouse models; cited from earlier work.
For assay [1], the system named is mouse bone-marrow-derived macrophages (BMDM). As to the kind of experiment: uptake of pHrodo-labeled apoptotic thymocytes by BMDM. It is filed as cell-based. Conditions: pHrodo-labeled apoptotic thymocytes as target cells.
Another assay has as its system Ccn1. In words: Ccn1 mRNA level in cells. It is filed as cell-based, mouse.
The next assay has as its system mouse peritoneal MQ. Particulars: 100 µg/mL CCN1, direct exposure; cited from earlier work.
The next assay has as its system BMDM. As to the kind of experiment: recombinant CCN1 treatment of BMDM, CD206+ frequency. It counts as cell-based, mouse.
The test system of a further assay is CD8+ T cells. In words: CD8+ T cells co-cultured with MC38 CCM-educated MQ or DC. It counts as cell-based, mouse.

Regarding `CCOc1ccn(-c2ccc(F)cc2)c(=O)c1C(=O)Nc1ccc(Oc2ccnc(N)c2Cl)c(F)c1` [BMS-777607], the tumor-growth-inhibitory effects result in the assay on tumor is “excellent tumor-growth-inhibitory effects”.

As to `CCCCNc1ncc(-c2ccc(CN3CCOCC3)cn2)c(NC2CCC(O)CC2)n1` (stereo not drawn) [UNC2250], the “ability of phagocytosis in BMDM” value in assay [1] is listed as “significantly decreased”. Besides, the “mRNA level of Ccn1 in BMDM primed with MC38 culture media” value in the assay with Ccn1 is “could not decrease”.

As to `COc1cc2nccc(Oc3ccc(NC(=O)c4cn(C(C)C)c(=O)n(-c5ccc(F)cc5)c4=O)cc3F)c2cc1OC` [RXDX-106], the tumor-growth-inhibitory effects entry in the assay with tumor is given as “excellent tumor-growth-inhibitory effects”.

B1: CCN1: recombinant CCN1, a secreted matricellular protein, added to macrophages (protein, UniProt O00622 25-381, looked up)
CCN family member 1: TCPAACHCPLEAPKCAPGVGLVRDGCGCCKVCAKQLNEDCSKTQPCDHTKGLECNFGASSTALKGICRAQSEGRPCEYNSRIYQNGESFQPNCKHQCTCIDGAVGCIPLCPQELSLPNLGCPNPRLVKVTGQCCEEWVCDEDSIKDPMEDQDGLLGKELGFDASEVELTRNNELIAVGKGSSLKRLPVFGMEPRILYNPLQGQKCIVQTTSWSQCSKTCGTGISTRVTNDNPECRLVKETRICEVRPCGQPVYSSLKKGKKCSKTKKSPEPVRFTYAGCLSVKKYRPKYCGSCVDGRCCTPQLTRTVKMRFRCEDGETFSKNVMMIQSCKCNYNCPHANEAAFPFYRLFNDIHKFRD
Consider B1, for which the “differentiation into M1-skewing MQ producing pro-inflammatory cytokines” value in the assay with mouse peritoneal MQ is on record as “promotes differentiation into M1-skewing MQ”. The “frequency of M2-skewed MQ” value in the assay on BMDM (10–500 ng/mL CCN1) was “increases”. In the assay on BMDM (recombinant CCN1, concentration-dependent and in presence of MC38 CCM), the “frequency of CD206+ BMDM” value is recorded as “increased”. Besides, in the assay with CD8+ T cells (CCN1 addition to DC), the “effect of CCN1 addition on KRCT87-mediated immune-boosting effects” value is given as “could not nullify”. The “effect of CCN1 addition on KRCT87-elevated granzyme B, IFN-γ, TNF-α production” value with CD8+ T cells (MQ educated by MC38-CCM) is given as “completely reversed”.
